According to article PMC10902665, “Stable structures or PABP1 loading protects cellular and viral RNAs against ISG20-mediated decay”:

What was measured:
ISG20 WT = ISG20 WT (UniProt Q96AZ6 1-181); experiment: EMSA; 10 mM Mn2+; ISG20 50-1600 nM, RNA 10 nM; fitted curve, no Kd printed in the material; ISG20 EMSA: 50 mM Tris-HCl pH 7.4, 150 mM NaCl, 5 mM b-mercaptoethanol, 10 mM MnCl2, 0.1 ug/ul BSA, 5% glycerol, 30 C 30 min; PABP1 EMSA: 25 mM Tris-HCl pH 7.4, 5 mM MgCl2, 100 mM NaCl, 2.5 mM DTT, 0.2 ug/ul BSA, 10% glycerol, 37 C 15 min; details: protein: recombinant; tags: N-terminal 6xHis; label: 5' 32P; hairpin
[1] = target: PABP1 (poly(A)-binding protein 1) (UniProt P11940 1-636); experiment: EMSA; 5 mM Mg2+; PABP1 50-500 nM, RNA 10 nM; ISG20 EMSA: 50 mM Tris-HCl pH 7.4, 150 mM NaCl, 5 mM b-mercaptoethanol, 10 mM MnCl2, 0.1 ug/ul BSA, 5% glycerol, 30 C 30 min; PABP1 EMSA: 25 mM Tris-HCl pH 7.4, 5 mM MgCl2, 100 mM NaCl, 2.5 mM DTT, 0.2 ug/ul BSA, 10% glycerol, 37 C 15 min; details: protein: recombinant; tags: His; label: 5' 32P; single strand
PABP1 (poly(A)-binding protein 1), sequence (P11940 whole entry): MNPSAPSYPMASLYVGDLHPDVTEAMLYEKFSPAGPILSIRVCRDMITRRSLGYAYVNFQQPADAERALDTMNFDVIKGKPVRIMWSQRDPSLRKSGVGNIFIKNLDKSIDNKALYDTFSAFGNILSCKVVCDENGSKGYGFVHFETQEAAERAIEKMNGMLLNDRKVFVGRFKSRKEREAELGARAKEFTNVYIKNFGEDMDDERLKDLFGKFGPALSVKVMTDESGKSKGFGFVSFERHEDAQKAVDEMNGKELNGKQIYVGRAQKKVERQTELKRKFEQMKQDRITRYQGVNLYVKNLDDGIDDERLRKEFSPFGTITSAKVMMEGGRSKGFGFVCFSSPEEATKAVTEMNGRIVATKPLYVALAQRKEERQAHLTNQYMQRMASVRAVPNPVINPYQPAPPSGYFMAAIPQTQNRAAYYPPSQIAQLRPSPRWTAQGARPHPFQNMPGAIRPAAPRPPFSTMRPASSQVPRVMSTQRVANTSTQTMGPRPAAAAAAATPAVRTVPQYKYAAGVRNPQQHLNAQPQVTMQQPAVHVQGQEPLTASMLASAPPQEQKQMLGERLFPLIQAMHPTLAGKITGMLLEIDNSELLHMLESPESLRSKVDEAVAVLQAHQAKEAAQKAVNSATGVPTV

ISG20 WT, sequence (Q96AZ6 whole entry): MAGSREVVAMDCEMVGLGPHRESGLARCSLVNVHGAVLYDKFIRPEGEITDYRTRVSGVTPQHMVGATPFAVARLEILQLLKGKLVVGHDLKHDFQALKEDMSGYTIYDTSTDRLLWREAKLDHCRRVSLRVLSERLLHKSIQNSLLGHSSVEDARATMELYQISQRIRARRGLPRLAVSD

Does GGGGCCAGAUCUGAGCCUGGGAGCUCUCUGGCCC (structured_RNA) [TAR-9SL] bind (ISG20 WT)?
Result: binds

Does ACACACACACACACACACACAAAAAAAAAAAAAAAAAAAA (ssRNA) [(AC)10A20, poly(A)-containing linear RNA] bind [1]?
Result: binds
